Target: VEGF
Experiment: cell-based or functional assay

“Murine Flk1-Fc (murine Flk1 ectodomain fused to murine IgG2a Fc fragment, adenovirus-expressed) (from UniProt P35918 20-762) (Fc fusion)” was tested, and the inhibition of VEGF-induced HUVEC proliferation in vitro, IC50 was 0.1 µg/mL.
For “Murine Flt1(1-3) soluble ectodomain with C-terminal 6xHis tag (adenovirus-expressed) (from UniProt P35969 23-328) (receptor)”, the inhibition of VEGF-induced HUVEC proliferation in vitro, IC50 was 0.005 µg/mL.
